Data from patent publication US7582437 (JAPAN SCIENCE AND TECHNOLOGY AGENCY, dated 2009).
Where a chain is given by its changes, count along the chain named. Names may count otherwise.

How the values were obtained:
human TLR3 [1] = target: T1, human TLR3 (human, UniProt O15455 24-904); test: stated in the description with reference to the Examples (reporter gene assays)
T1 construct: whole, on cells; also called human Toll-like receptor 3

human TLR3 [2] = target: T1, human TLR3; test: stated in the description with reference to the Examples (dominant-negative effect in reporter gene assays)
Procedure: By using the gene transfecting cationic lipid "Lipfectamine 2000" reagent (made by Gibco), HEK293 cells in 24-well plates were transfected with (i) 0.1 µg of luciferase-linked NF-κB reporter gene (made by Stratagene) (c.f. FIG. 13(b)) or 0.1 µg of p125.luc reporter plasmid (c.f. FIG. 13(a)), (ii) TICAM-1 TIR (0.1 ng and 10 ng) or a plasmid (0, 0.2 µg, 0.6 µg), the plasmid encoding TICAM-1 TIR mutant TIR P434H of TICAM-1 TIR, and (iii) empty vector, TLR2 (0.1 µg), or TLR3 (0.6 µg).
A total amount (0.8 µg to 1.0 µg) of transfected DNA was adjusted by adding the empty vectors. Moreover, plasmid vector pCMVβ (made by Clontech; 5 ng) was used as an internal control.
Twenty four hours after the transfection, the cells were stimulated for 6 hours with 100 nM of MALP-2 (TLR2 stimulation) or 10 µg/ml of poly (I:C) (TLR3 stimulation), and then lyzed with the lysis buffer (made by Promega). Luciferase activity that indicate the interferon β activation or NF-κB activation caused by stimulation after the transfection in thus prepared lysates were measured according to the manufacturer's instructions. This experiment was repeated three times. Representing values thereof were considered as measurement values. Level of the interferon β activation is illustrated in FIG. 13(a), and level of the NF-κB activation is illustrated in FIG. 13(b).

B1: human TICAM-1 TIR (mutant made of almost only the TIR domain, amino acids 387 to 556 of human TICAM-1) (other)
chain: ESSSEQKFYNFVILHARADEHIALRVREKLEALGVPDGATFCEDFQVPGRGELSCLQDAIDHSAFIILLLTSNFDCRLSLHQVNQAMMSNLTRQGSPDCVIPFLPLESSPAQLSSDTASLLSGLVRLDEHSQIFARKVANTFKPHRLQARKAMWRKEQDTRALREQSQHL
notes: Expressed in HEK293 cells from pEFBOS; also called TIR of TICAM-1; pEFBOS-TICAM-1 (TIR)
binding result (human TLR3 [1]): binds

B2: dominant-negative mutant P434H of human TICAM-1 TIR (other)
chain: B1 chain with P48H
notes: Expressed in HEK293 cells from pEFBOS with an initiator Met; also called TIR P434H
binding result (human TLR3 [2]): binds
